Assay results: US20260151420A1

Target: mouse LAG3 on Pmel-1 or Pmel-1xLy108 KO splenocytes (mouse) (UniProt Q61790)
Assay: cell-based or functional assay

Sequence of UniProt Q61790 (Q61790 24-521): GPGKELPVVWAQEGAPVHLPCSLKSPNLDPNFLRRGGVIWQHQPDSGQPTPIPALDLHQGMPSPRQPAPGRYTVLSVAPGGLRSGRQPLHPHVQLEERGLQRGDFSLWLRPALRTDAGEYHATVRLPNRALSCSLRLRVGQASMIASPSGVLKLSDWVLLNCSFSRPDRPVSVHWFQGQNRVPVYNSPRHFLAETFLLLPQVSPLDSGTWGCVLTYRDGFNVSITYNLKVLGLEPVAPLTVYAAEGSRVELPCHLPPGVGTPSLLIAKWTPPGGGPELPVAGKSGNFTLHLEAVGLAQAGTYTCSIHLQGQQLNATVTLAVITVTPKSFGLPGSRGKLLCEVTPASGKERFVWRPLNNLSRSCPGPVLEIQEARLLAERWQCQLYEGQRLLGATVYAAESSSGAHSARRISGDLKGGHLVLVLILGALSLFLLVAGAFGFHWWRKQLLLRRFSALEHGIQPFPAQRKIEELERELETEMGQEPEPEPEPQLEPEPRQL

anti-LAG3 blocking antibody (BioXCell, clone: C9B7W, cat: BE0174)
IFN-γ production (ELISA), Pmel-1×Ly108 KO cells with anti-LAG3 compared to Ly108-expressing cells: 3 fold | IFN-γ secretion (ELISA) of Pmel-1 splenocytes activated with anti Lag3 (10 µg/ml), compared to no treatment: 1.5 fold
